Measured values: publication PMC3170924 (Journal of molecular biology, 2011)

B1: AA peptide, K2WQ10AAQ10AK2 (polyglutamine peptide interrupted by AlaAla) (peptide)
peptide: Ac-KKWQQQQQQQQQQAAQQQQQQQQQQAKK-NH2
B2: PG peptide, K2WQ10(D-Pro)GQ10AK2 (polyglutamine peptide interrupted by the beta-turn template D-ProGly) (peptide)
peptide: KKWQQQQQQQQQQPGQQQQQQQQQQAKK
HELM: PEPTIDE1{[ac].K.K.W.Q.Q.Q.Q.Q.Q.Q.Q.Q.Q.[dP].G.Q.Q.Q.Q.Q.Q.Q.Q.Q.Q.A.K.K.[am]}$$$$V2.0
SMILES: CC(=O)N[C@@H](CCCCN)C(=O)N[C@@H](CCCCN)C(=O)N[C@@H](Cc1c[nH]c2ccccc12)C(=O)N[C@@H](CCC(N)=O)C(=O)N[C@@H](CCC(N)=O)C(=O)N[C@@H](CCC(N)=O)C(=O)N[C@@H](CCC(N)=O)C(=O)N[C@@H](CCC(N)=O)C(=O)N[C@@H](CCC(N)=O)C(=O)N[C@@H](CCC(N)=O)C(=O)N[C@@H](CCC(N)=O)C(=O)N[C@@H](CCC(N)=O)C(=O)N[C@@H](CCC(N)=O)C(=O)N1CCC[C@@H]1C(=O)NCC(=O)N[C@@H](CCC(N)=O)C(=O)N[C@@H](CCC(N)=O)C(=O)N[C@@H](CCC(N)=O)C(=O)N[C@@H](CCC(N)=O)C(=O)N[C@@H](CCC(N)=O)C(=O)N[C@@H](CCC(N)=O)C(=O)N[C@@H](CCC(N)=O)C(=O)N[C@@H](CCC(N)=O)C(=O)N[C@@H](CCC(N)=O)C(=O)N[C@@H](CCC(N)=O)C(=O)N[C@@H](C)C(=O)N[C@@H](CCCCN)C(=O)N[C@@H](CCCCN)C(N)=O
B3: Q20 peptide, K2WQ20AK2 (uninterrupted polyglutamine control) (peptide)
peptide: Ac-KKWQQQQQQQQQQQQQQQQQQQQAKK-NH2

Target: the molecule itself
Test: sedimentation assay

Point of comparison: B3, “Kn k+^2 (nucleation-elongation fit of sedimentation data)” value 0.000235 M^−2s^−2. Against it:
- B1 — lower, 0.000197 M^−2s^−2
- B2 — higher, 0.127 M^−2s^−2
